Results: US20240425587A1 (Alector, published 2024)

Legend:
[1] = molecular target: human PILRA on the surface of primary human macrophages or monocytes (human, UniProt Q9UKJ1 20-303); test: cell-based or functional assay
[2] = molecular target: T1, human PILRA, G78 variant, ectopically expressed on 293 cells (human, UniProt Q9UKJ1 20-303); test: flow cytometry, MFI relative to 293 parental cells
T1 construct: the cells are labelled G78; also called hA G78 OE; hA
Description: (§1) Briefly, conditioned media containing antibodies were incubated with 293 cells for 30 min at 4° C., washed twice, and then detected with anti-mouse IgG Alexa 647.

[3] = molecular target: T2, human PILRB, ectopically expressed on 293 cells (human, UniProt Q9UKJ0 20-227); test: flow cytometry, MFI relative to 293 parental cells
T2 construct: also called hB
Description: as §1

[4] = molecular target: T3, cynomolgus PILRA, ectopically expressed on 293 cells (cynomolgus monkey); test: flow cytometry, MFI relative to 293 parental cells
Description: as §1

[5] = molecular target: T4, murine PILRA, ectopically expressed on 293 cells (murine, UniProt Q2YFS3 32-302); test: flow cytometry, MFI relative to 293 parental cells
T4 construct: also called mA
Description: as §1

[6] = molecular target: T5, murine PILRB, ectopically expressed on 293 cells (murine, UniProt Q2YFS2 29-224); test: flow cytometry, MFI relative to 293 parental cells
T5 construct: whole, on cells; also called mB
Description: as §1

[7] = molecular target: T6, PILRA Fc (soluble human PILRA) (human, UniProt Q9UKJ1 20-197, limits assumed); test: flow cytometry; PILRA Fc binding to human CD3+ T cells with antibody, relative to PILRA Fc alone
T6 construct: also called soluble PILRA; not shown: Fc part, detected with anti-human IgG
Description: (§2) The ability of conditioned media samples containing antibodies to inhibit the binding of PILRA Fc to human CD3+ T cells was assessed. Briefly, conditioned media samples containing antibodies were incubated with 1.25 ug/ml PILRA Fc for 30 min at 4° C. and then added to human T cells. After 30 minutes incubation at 4° C., cells were washed, and bound PILRA Fc was detected with anti-human IgG Alexa 647. Cells were analyzed by flow cytometry on FACS Canto II, and for all cell lines, the amount of PILRA Fc binding (MIFI) and the percentage of PILRA Fc binding in the presence of conditioned media relative to PILRA Fc binding alone was calculated. Several antibodies inhibited binding of PILRA Fc to human T cells, and a few antibodies enhanced PILRA-Fc binding to T cells. Antibodies that show enhancement in this assay may block cis inhibition to promote trans interactions or may allosterically activate to enhance trans interactions without blocking cis.

[8] = molecular target: T1, human PILRA, G78 variant, ectopically …; test: flow cytometry; NPDC1-mIgGa binding to 293 cells expressing human PILRA G78 with antibody, relative to NPDC1 Fc alone
Description: Conditioned media samples containing antibodies (10 ug/ml) were assessed for modulating the binding of Neural Proliferation Differentiation and Control Protein 1 (NPDC1) Fc to 293 cells ectopically expressing human PILRA. Briefly, conditioned media samples containing antibodies were incubated with 293 cells expressing human PILRA for 30 minutes at 4° C., and then 5 μg/ml NPDC1 Fc was added to this mixture. Where the antibodies were generated from phage panning, a NPDC1-hIgG1 ligand was used. Where the antibodies were generated from hybridomas, a NPDC1-mIgGa ligand was used. After 30 minutes incubation at 4° C., cells were washed and cell-bound NPDC1 Fc was detected with anti-human or mouse IgG Alexa 647. Cells were analyzed by flow cytometry on FACS Canto II, and for all cell lines, the percentage of NPDC1 Fc binding in the presence of conditioned media relative to NPDC1 Fc binding alone was calculated. Several antibodies decreased binding of NPDC1 to human PILRA, and a few antibodies enhanced ligand binding to human PILRA. Antibodies that show enhancement in this assay may block cis inhibition to promote trans interactions or may allosterically activate to enhance trans interactions without blocking cis.

[9] = molecular target: T7, human PILRA, c-term His-Avi tag (human, UniProt Q9UKJ1 20-197, limits assumed); test: SPR (Biacore), antibody captured, PILRA as analyte
T7 construct: not shown: C-terminal His-Avi tag
Outline: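 Antibodies were captured at 10 μg/ml on an anti-huFc or anti-msFc CM5 surface, and human PILRA was flowed at 33, 100 and 300 nM in HBSTE/0.5% BSA, pH 7.4. The surface was regenerated with 10 mM glycine-HCl, pH 2.1, after each analyte. Curves were double-referenced with buffer injections.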

[10] = molecular target: T6, PILRA Fc (soluble human PILRA); test: flow cytometry blocking assay, graph 'V1 Blocking_CD3+T Donor 906': antibody mixed with PILRA-Fc, then human CD3+ T cells; bound PILRA-Fc detected with AF647 2nd Ab; blocked partner: PILRA ligand on the T cells
Description: as §2

[11] = molecular target: T1, human PILRA, G78 variant, ectopically …; test: flow cytometry, 293 cells expressing target
Description: as §1

[12] = molecular target: T2, human PILRB, ectopically expressed on …; test: flow cytometry, 293 cells expressing target
Description: as §1

[13] = molecular target: T3, cynomolgus PILRA, ectopically expressed …; test: flow cytometry, 293 cells expressing target
Description: as §1

[14] = molecular target: T4, murine PILRA, ectopically expressed on …; test: flow cytometry, 293 cells expressing target
Description: as §1

[15] = molecular target: T5, murine PILRB, ectopically expressed on …; test: flow cytometry, 293 cells expressing target
Description: as §1

[16] = molecular target: T6, PILRA Fc (soluble human PILRA); test: flow cytometry; blocking of PILRA Fc binding to human CD3+ T cells (Donor 1019)
Description: as §2

T2 sequence (Q9UKJ0 20-227): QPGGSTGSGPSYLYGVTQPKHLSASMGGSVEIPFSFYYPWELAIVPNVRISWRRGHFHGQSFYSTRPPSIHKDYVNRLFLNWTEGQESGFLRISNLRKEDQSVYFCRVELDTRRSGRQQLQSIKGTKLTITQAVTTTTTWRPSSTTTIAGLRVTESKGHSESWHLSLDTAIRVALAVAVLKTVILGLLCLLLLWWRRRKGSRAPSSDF
T3 sequence (chain, as listed by the source): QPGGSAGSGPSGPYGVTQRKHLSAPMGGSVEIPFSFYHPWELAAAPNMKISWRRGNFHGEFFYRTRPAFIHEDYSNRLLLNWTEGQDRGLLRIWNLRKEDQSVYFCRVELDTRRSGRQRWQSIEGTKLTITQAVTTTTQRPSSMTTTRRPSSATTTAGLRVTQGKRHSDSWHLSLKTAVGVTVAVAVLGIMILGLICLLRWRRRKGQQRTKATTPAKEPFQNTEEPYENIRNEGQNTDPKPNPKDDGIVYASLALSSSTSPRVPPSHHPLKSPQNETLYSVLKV
Sequence of human PILRA on the surface of primary human macrophages or monocytes (Q9UKJ1 20-303): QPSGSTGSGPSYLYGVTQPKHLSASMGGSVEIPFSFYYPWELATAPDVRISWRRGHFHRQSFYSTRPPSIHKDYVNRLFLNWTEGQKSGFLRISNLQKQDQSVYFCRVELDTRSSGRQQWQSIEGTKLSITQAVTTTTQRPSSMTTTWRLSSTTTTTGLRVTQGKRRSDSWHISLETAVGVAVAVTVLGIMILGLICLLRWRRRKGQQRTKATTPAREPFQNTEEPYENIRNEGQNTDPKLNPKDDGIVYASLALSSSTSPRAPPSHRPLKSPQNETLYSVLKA
T7 sequence (Q9UKJ1 20-197 limits assumed): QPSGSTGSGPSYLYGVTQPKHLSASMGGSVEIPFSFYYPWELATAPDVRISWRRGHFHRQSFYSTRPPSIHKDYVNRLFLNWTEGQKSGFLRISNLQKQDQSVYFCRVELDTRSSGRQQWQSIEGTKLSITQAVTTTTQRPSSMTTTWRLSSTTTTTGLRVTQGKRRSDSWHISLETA
T6 sequence (Q9UKJ1 20-197 limits assumed): as above
T1 sequence (Q9UKJ1 other isoform, or with tags, fused parts or gaps mutant): as the sequence (Q9UKJ1 20-303) above, with R59G counted along it
T4 sequence (Q2YFS3 32-302): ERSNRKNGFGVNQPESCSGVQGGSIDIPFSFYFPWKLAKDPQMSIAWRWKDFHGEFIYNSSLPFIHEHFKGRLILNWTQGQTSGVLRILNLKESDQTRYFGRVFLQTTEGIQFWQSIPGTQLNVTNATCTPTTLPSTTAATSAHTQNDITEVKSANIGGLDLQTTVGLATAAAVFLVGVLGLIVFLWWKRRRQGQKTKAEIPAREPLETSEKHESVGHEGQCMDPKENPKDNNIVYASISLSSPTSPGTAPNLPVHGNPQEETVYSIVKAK
T5 sequence (Q2YFS2 29-224): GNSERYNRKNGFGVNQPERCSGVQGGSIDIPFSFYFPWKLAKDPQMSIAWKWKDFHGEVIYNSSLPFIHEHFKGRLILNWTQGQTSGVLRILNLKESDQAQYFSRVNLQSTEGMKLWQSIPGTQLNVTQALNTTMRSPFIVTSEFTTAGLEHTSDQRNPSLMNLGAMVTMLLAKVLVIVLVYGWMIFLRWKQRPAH

hPILRA downregulation EC50 [1] [µg/mL] | MFIr [2] | MFIr [3] | MFIr [4] | MFIr [5] | MFIr [6] | % Binding [7] [%] | % Binding [8] [%] | Kd [9] [nM] | koff [9] [s⁻¹] | kon [9] [M⁻¹ s⁻¹] | t½ [9] [min] | Binder | also measured
 | 36.1 | 1.1 | 0.8 | 1 | 0.8 | 82 | 110 | 10.5 | 0.0036 | 340000 | 3.3 | E13 (antibody, V domains shown, first hybridoma campaign) VH: QVQLQQPGAELVMPGASVKLSCKASGYTFTRYWIHWVRQRPGQGLEWIGEIDPSDSYTNHNQKFKDKATLTVDKSSSTAYMQLSSLTSEDSAVYFCANSNYDYWGQGTTLTVSS VL: not shown | 
0.48 |  |  |  |  |  |  |  |  |  |  |  | hPA-002 (hIgG4 isotype) (antibody, V domains shown) VH: QVTLQESGPGILQPSQTLSLTCSFSGFSLSTFGMGVGWIRQPSGKGLEWLAHIWWDDDKYYNPALKSRLTISKDTSKNQVFLKIASVDTADIATYYCARVEDYGNPFDYWGQGTTL VL: DIQMNQSPSSLSASLGDTITITCHASQNIHVWLNWYQQKPGNIPKLLIYKASNLHTGVPSRFSGSGSGTGFTVTISSLQPEDIATYYCQQGQSYPLTFGAGTKLELK | 
 |  |  |  |  |  |  |  | 23.4 | 0.0052 | 220000 | 2.2 | hPA-002 (antibody, V domains shown) VH: QVTLQESGPGILQPSQTLSLTCSFSGFSLSTFGMGVGWIRQPSGKGLEWLAHIWWDDDKYYNPALKSRLTISKDTSKNQVFLKIASVDTADIATYYCARVEDYGNPFDYWGQGTTL VL: DIQMNQSPSSLSASLGDTITITCHASQNIHVWLNWYQQKPGNIPKLLIYKASNLHTGVPSRFSGSGSGTGFTVTISSLQPEDIATYYCQQGQSYPLTFGAGTKLELK | IC50 (read off the curve) [10]: ~1 µg/mL
0.4 |  |  |  |  |  |  |  |  |  |  |  | A16 (hIgG4 isotype) (antibody, V domains shown) VH: QVQLVQSGAEVKKPGSSVKVSCKASGYNFLNYDVNWVRQAPGQGLEWMGGIIPIFGTANYAQKFQGRVTITADESTSTAYMELSSLRSEDTAVYYCATGVGAGWFDPWGQGTLVTVSS VL: not shown | 
 |  |  |  |  |  |  |  | 65.6 | 0.0012 | 18000 | 9.6 | E12 (antibody, V domains shown, B-cell cloning campaign (mice)) VH: QVQLQQSGAELAKPGASVKLSCKASGYTFTSYWIHWVKQRPGQGLEWIGYINPSSGDTEYNQKFKDKATLTADKSSNTAYMQLSSLTYEDSAVYYCARSAPDDGYYDYAMDYWGQGTSVTVSS VL: DIVMTQSRKFMSTSVGDRVSVTCKASQNVGSNVAWYQQKPGQSPKGLTYSASYRYSGVPDRFTGSGSGTDFTLTISNVQSEDLAEYFCQQYNSYPYTFGGGTKLEIK | EC50 [11]: 31 µg/mL; binding result [12]: no binding; binding result [13]: no binding; binding result [14]: no binding; binding result [15]: no binding; IC50 [16]: 2.2 µg/mL

Second part, the binder before the results:

Binder | hPILRA downregulation EC50 [1] [µg/mL] | MFIr [2] | MFIr [3] | MFIr [4] | MFIr [5] | MFIr [6] | % Binding [7] [%] | % Binding [8] [%] | Kd [9] [nM] | koff [9] [s⁻¹] | kon [9] [M⁻¹ s⁻¹] | t½ [9] [min] | also measured
B3 (hIgG4 isotype) (antibody, V domains shown) VH: EVKLVESGGGLVKPGGSLKLSCTASGFTFSNYAMSWVRQTPEKRLEWVASISGGGSTYYPDSVKGRFTIAIDYARNILYLQMSSLRSEDTAIYFCTRGVSYGDYAMDYWGQGTSVTVSS VL: ETTVTQSPASLSMAIGEKVTIRCVTSTDIDDDMNWYQQKPGGPPKLLISEGNTLRPGVPSRFSSSGYGSDFVFTIEDMLSEDVADYYCLQSDNLPLTFGAGTKVELK | 0.006 |  |  |  |  |  |  |  |  |  |  |  | 
C8 (antibody, V domains shown, first hybridoma campaign) VH: EVQLQQSGADLVKSGASVKLSCTASGFNIKDYYIHWVKQRTAQGLEWIGRITPEDGETEYAPTFQVKATITADTSSNTAYLQLNSLTSEDTAVYYCSLGDYDVSPFAYWGQGTLVTVSA VL: DIQMTQSPASQSASLGESVTITCLASQTIGTWLAWYQQKPGKSPQLLIYAATSLADGVPSRFSGSGSGTKFSFKISSLQAEDFVSYYCQQLYSTPYTFGGGTKLEIK |  | 44.2 | 1.2 | 0.8 | 0.9 | 0.8 | 33.2 | 69.7 |  |  |  |  | 
B1 (hIgG4 isotype) (antibody, V domains shown) VH: DVKLVESGGGLVKLGGSLKLSCAASGFTFSSYYMSWVRQTPEKRLEWVAAINSNGDRSYYPDTVKGRFTISRDNAKNTLYLQMSSLKSEDTAFYYCASHGNYYGSPWFAYWGQGTLVTVSA VL: ETTVTQSPASLSVATGEKVTIRCKTSTDIDDDMNWYQQKPGEPPKLLISEGNTLRPGVPSRFSSSGYGTDFVFTIENTLSEDVADYYCLQNDHMPLTFGGGTKLEIK | 0.009 |  |  |  |  |  |  |  |  |  |  |  | 
C2 (antibody, V domains shown, first hybridoma campaign) VH: QVQLQQSGAELVRPGASVTLSCKAAGYTFADYEMHWVRQTPVLGLEWIGAIDSEPGRTVYNQKFKSKAILTADKSSSTAYMELRSLTSDDSAVYYCTRRGAFYTNYDFFDYWGQGTTLTVSS VL: not shown |  | 102 | 1.1 | 2.7 | 0.9 | 0.8 | 66.2 | 177 | 2.2 | 0.0038 | 1.7e+06 | 3.1 | 
C7 (antibody, V domains shown, first hybridoma campaign) VH: QVQLQQSGAELARPGTSVKLSCKASGYIFTDYAISWVKQRTGQGLQWIGEIYPGSDNAYYNENFKGKATLTADKSSNTAYMELRSLTSEDSAVYFCAKWAGSLFDFWGQGTALTVSS VL: DIVMTQSQKFMSTSVGDRVSVTCKASRNVGFNVAWYQQNPGQSPKALIYSASYRYSGVPDRFTGSGSGTDFTLTISDVQSEDLAEYFCHQYNSYPYTFGGGTKLEIR |  | 202 | 1.2 | 0.3 | 0.3 | 0.3 | 8.1 | 35.9 |  |  |  |  | 
C1 (antibody, V domains shown, first hybridoma campaign) VH: QIQLVQSGPELKKPGETVKISCKASGYTFTTYGMSWVKQAPGKGLKWMGWINTYSGVPTYADDFQGRFAFSLETSASTAYLQINNLKNEDTAPYFCVRDGYAAPYWGQGTLVTVSA VL: NIMMTQSPSSLAVSAGEKVTMRCKSSQSVLYSSNQKNYLAWYQQKPGQSPKLLIYWASTRESGVPDRFTGSGSGTDFTLTISSVQAEDLAVYYCHQYLSSWTFGGGTKLEIK |  | 113 | 1.2 | 70.5 | 0.8 | 0.8 | 60 | 158 | 45 | 0.0037 | 81000 | 3.2 | 
